Source: patent US12599645B2, “Antibodies which bind to lysophosphatidic acid receptor 1 (LPAR1)” (DJS ANTIBODIES LTD, priority 2021, dated 2026)

Key:
[1] = biological target: T1, human LPAR1 (Homo sapiens, UniProt Q92633, N35A); assay: In vitro epitope analysis: transient-transfection CIFAT on human LPAR1 with residue substitutions to alanine; assay type: binding; conditions: human LPAR1 position 35 (N, N-terminus) substituted to alanine; binding of mAb with VH SEQ ID NO: 369, VL SEQ ID NO: 39
T1 construct: HA; expressed in transfected cells; host or cells: CHO-K1 (transient)
Description: (§1) CHO-K1 cells were seeded in clear 96-well plates at 20,000 cells per 200 μL full growth medium and incubated for 24 hours at 37° C. The following day, in a sterile tube, 0.0309 uL/well PEI (Generon, MW 160,000) was diluted into 10 uL/well transfection medium (DMEM supplemented with 2 mM L-glutamine and Penicillin-Streptomycin). The diluted PEI was added to 100 ng/well DNA encoding the target protein (human LPAR1 (SEQ ID NO: 62) unless otherwise stated), before vortexing immediately and incubating the mixture for 10 minutes at room temperature. 200 μL/well full growth medium was added to the PEI-DNA mixture, then medium in wells was taken off and 200 ul full growth medium/PEI/DNA mixture was added in the wells of the adherent cell plate. […] After washing and cell fixation with 4% PFA, the binding of the antibodies was detected using a goat anti-human Alexa Fluor 488 detection antibody (Invitrogen), incubated for 1 hour at room temperature. Fluorescence at 488 nm was measured using a BMG LABTECH ClarioStar plate reader and microscopy images were taken at 10× magnification.
(§2) Based on the epitope analysis presented in FIGS. 3 and 4, constructs were designed to test the important residues/interaction regions predicted in silico. […] CHO-K1 cells were transiently transfected with these plasm ids and the binding of an anti-LPAR1 mAb assessed to each of these receptor variants using protocol 1.11. […]

[2] = biological target: T2, human LPAR1 (Homo sapiens, UniProt Q92633, Q286A); assay: as above; assay type: binding; conditions: human LPAR1 position 286 (Q, ECD3) substituted to alanine
T2 construct: HA; expressed in transfected cells; host or cells: CHO-K1 (transient)
Description: as §1, §2

T2 sequence (Q92633 whole entry Q286A): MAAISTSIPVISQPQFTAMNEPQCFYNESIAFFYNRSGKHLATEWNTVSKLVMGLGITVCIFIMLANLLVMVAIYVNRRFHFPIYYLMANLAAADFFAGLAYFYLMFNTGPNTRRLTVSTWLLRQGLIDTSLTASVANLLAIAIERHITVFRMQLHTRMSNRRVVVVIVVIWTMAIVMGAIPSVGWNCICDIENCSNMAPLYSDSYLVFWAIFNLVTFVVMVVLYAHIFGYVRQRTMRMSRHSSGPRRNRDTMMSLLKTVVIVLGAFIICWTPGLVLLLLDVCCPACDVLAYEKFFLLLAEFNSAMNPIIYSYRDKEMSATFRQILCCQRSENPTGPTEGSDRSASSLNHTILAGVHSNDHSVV
T1 sequence (Q92633 whole entry N35A): as the sequence (Q92633 whole entry Q286A) above, with N35A, A286Q counted along it

B1: anti-LPAR1 mAb: mAb of the in vitro epitope analysis; VH of SEQ ID NO: 369 and VL of SEQ ID NO: 39 (antibody, V domains shown)
VH: QVQLVQSGSELKKPGASVKVSCKASGYTFTSSGISWVRQAPGQGLEWMGEILPRSGYTNYNQGFTGRFVFSADKSVSTAYLQISSLKAEDTAVYYCARDFASARYAMDYWGQGTTVTVSS
VL: SIQMTQSPSSLSASVGDRVTITCQASQSVRYNVAWYQQKPGKAPKLLIYYASNRYTGVPSRFSGSGSGTDFTFTISSLQPEDIATYFCQHHYSSPLTFGGGTKLEIK
modifications: REGION 1..120: note = >huVH4_Q61A97A99G104
- Epitope residue [1]: Inconclusive
- Epitope residue [2]: Inconclusive
